# Measured values published in IntAct's records for PubMed 12093730.
# B1: Guanine nucleotide exchange factor SopE (Salmonella typhimurium), O52623 (parent)
# chain: MTKITLSPQNFRIQKQETTLLKEKSTEKNSLAKSILAVKNHFIELRSKLSERFISHKNTESSATHFHRGSASEGRAVLTNKVVKDFMLQTLNDIDIRGSASKDPAYASQTREAILSAVYSKNKDQCCNLLISKGINIAPFLQEIGEAAKNAGLPGTTKNDVFTPSGAGANPFITPLISSANSKYPRMFINQHQQASFKIYAEKIIMTEVAPLFNECAMPTPQQFQLILENIANKYIQNTP
# Variants of: B1
# Details: with cdc42_human CDC42, P60953
# Chain of cdc42_human CDC42, P60953 (P60953 whole entry, looked up): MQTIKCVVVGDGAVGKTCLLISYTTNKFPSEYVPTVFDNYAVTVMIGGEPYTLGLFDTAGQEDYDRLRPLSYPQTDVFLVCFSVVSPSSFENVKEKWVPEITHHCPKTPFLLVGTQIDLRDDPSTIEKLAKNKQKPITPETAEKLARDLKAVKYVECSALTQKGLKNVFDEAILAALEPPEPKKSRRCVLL
row,Variant,effect of a mutation on the interaction
1,MTKITLSPQNFRIQKQETTLLKEKSTEKNSLAKSILAVKNHFIELRSKLSERFISHKNTESSATHFHRGSASEGRAVLTNKVVKDFMLQTLNDIDIRGSASKDPAYASQTREAILSAVYSKNKDQCCNLLISKGINIAPFLQEIGEAAKNAGLPGTTKNDVFTPSGAAANPFITPLISSANSKYPRMFINQHQQASFKIYAEKIIMTEVAPLFNECAMPTPQQFQLILENIANKYIQNTP [G168A],decreasing interaction
